Laboratory results reported in patent publication US20070190603A1 (MIT, published 2007).

Biological target: the molecule itself
Assay: self-assembly into a macroscopic membrane in DMEM; phase-contrast microscopy and Congo Red staining
Description: The peptides were initially dissolved in water (5 mg/ml) or in 23% acetonitrile (10 mg/ml). A volume of 5-10 microliters of the dissolved peptides were applied to the DMEM medium, PBS or water. The formation of the membrane was first observed under a phase-contrast microscope and then, by the naked eye after staining with Congo Red.

Protein	binding result
Ac-AEAKAEAEAKAK-NH2 [EAK12 peptide, Ac-HN-AEAKAEAEAKAK-CONH2]	binds
Ac-AEAEAKAKAEAEAKAK-NH2 (Self-assembling amphiphilic peptide) [EAK16 peptide, Ac-HN-AEAEAKAKAEAEAKAK-CONH2]	binds
